Experimental data as given in patent US20210371503A1 (UNIVERSITY OF COLOGNE, published 2021).
Substitutions are numbered along the chain they refer to.

B1: MnC1t3p1_G9 (antibody, V domains shown)
VH: EVQLLESGGGLVQPGGSLRLSCAASGFTFRNYAMTWVRQAPGKGLEWVSGISDSGDRTYNADSVKGRFSISRDNSKNTLHLQMNSLRAEDTAVYYCALASGSYFGGANYWGQGTLVTVSS
VL: QAVVTQEPSLTVSPGGTVTLTCGSSTGPVTSDHYPYWFQQKPGQAPTTLIYDTNNKHSWTPARFSGSLLGGKAALTLSGAQPEDEAEYYCLLSYTGARVFGGGTKLTVL
B2: MnC4t1p1_A11 (antibody, V domains shown)
VH: EVQLVESGGGLVQPGGSLRLSCAASGFTFSSYSMNWVRQAPGKGLEWVSYISSSSNTRYYTDSVMGRFTISRDNAKNSLFLQMNSLRAEDTAVYYCASSKGFCSGGSCSDYWGQGTLVTVSS
VL: EIVLTQSPGTLSLSPGERATLSCRASQSVSSSYLAWYQQKPGQAPRLLIYGVSSRATGIPDRFSGSGSGTDFTLTISRLEPEDFVVYYCHQYGSSPWTFGQGTKVEIK
B3: MnC2t2p1_C11 (antibody, V domains shown)
VH: QVQLVQSGAEVKKPGSSVKVSCKASGGTFSRYTIIWVRQAPGQGLEWMGRIIPILDIANYAQKFQGRVTITADKSTSTAYMELSSLRSEDTAVYYCAREGGLDYFGSRNSGWTYTWFDPWGQGTLVTVSS
VL: DIQMTQSPSSLSASVGDRVTITCRASQNISSYLNWYQQKPGKAPNLLIYAASSLQSGVPPRFSGSGSGTDFTLTISSLQPEDFATYYCQQSYSTLYSFGQGTKLEIK
B4: MnC2t1p1_A3 (antibody, V domains shown)
VH: EVQLVESGGGLVQPGGSLRLSCAASGFTVSSNYMSWVRQAPGRGLEWVSVIYSGGSTFYADSVKGRFTISRDNSKNTLYLQMNSLRPEDTAVYYCATGARFGESPFDYWGQGTLVTVSS
VL: DIQMTQSPSSVSASVGDRVTITCRASQGISSWLAWYQQKPGKAPKLLIYAASSLQSGVPSRFSGSGSGTDFTLTISSLQPEDFATYYCQQANSFPGTFGQGTKVEIK
B5: MnC2t1p1_C5 (antibody, V domains shown)
VH: B4 VH with R43K, F58Y, P87A
VL: B4 VL
B6: MnC4t2p1_B3 (antibody, V domains shown)
VH: EVQLVESGGHLVQPGRSLRLSCAASGFTFDDYAMHWVRQVPGKGLEWVSGISWNGGILDYADSVKGRFTISRDNAKNSLYLHMRSLRTDDTALYYCAKDLRRQDYYADWYFDLWGRGTLVTVSS
VL: DIQMIQSPSSVSASVGDRVTITCRASQGISSWLAWYQQKPGKAPKLLIYAASTLLSAVPSRFSGSGSGTDFTLTISSLQPEDFATYYCQQGNSFPFTFGPGTIVDV
B7: HbnC2t1p2_D9 (antibody, V domains shown)
VH: QVQLVESGGGVVQPGRSLRLSCAASGFTFSSYGMHWVRQAPGKGLEWVAVIWYDGRNKYYVDSVKGRFTISRDNSKNTLYLQISSLRAEDTAVYYCARAARRPVVTDTMAYYMDVWGKGTTVTVSS
VL: EIVLTQSPATLSLSPGERATLSCRASLSLSSYLAWYQQKPGQAPRLLIYDASNRATGIPARFSGSGSGTDFTLTISSLEPEDFAVYYCQQRSNWPPTWTFGQGTKAEIKR
B8: HbnC3t1p1_C6 (antibody, V domains shown)
VH: QMQLVQSGPEVKKPGTSVKVSCKASGFTFTSSAVQWVRQARGQRLEWIGWIVVGSGNTNYAQKFQERVTITRDMSTSTAYMELSSLRSEDTAVYYCAAPHCSSTICYDGFDIWGQGTMVTVSS
VL: not shown
B9: HbnC3t1p2_C6 (antibody, V domains shown)
VH: B8 VH with T30S, E66G, S77R, V93M, H100Y, I105R, G109A
VL: not shown
B10: HbnC4t1p1_D5 (antibody, V domains shown)
VH: EVQLVESGGGLVQPGRSLRLSCAASGFTFDDYAMHWVRQAPGKGLEWVSGISWNSGSIGYADSVKGRFTISRDNAKNSLYLQMNSLRAEDTGLYYCAKDINYDSGGYHKNYFDYWGQGTLVTVSS
VL: DIQMTQSPSSLSASVGDRATITCRASQSISSYLNWYQEKPGKAPKLLIYAASSLQSGVPSRFSGSGSGTDFTLTISSLQPEDFATYYCQQSYSNPLTFGGGTKVEIK
B11: HbnC3t1p1_G4 (antibody, V domains shown)
VH: EVQLVESGGGLVQPGGSLRLSCAASGFTVSSNYMSWVRQAPGKGLEWVSVIYSGGSTFYADSVKGRFTISRDNSKNTLYLQMNSLRAEDTAVYYCARDFGDFFFDYWGQGTLVTVSS
VL: EIVLTQSPGTLSLSPGERATLSCRASQSVSSYLAWYQQKPGQAPRLLIYGVSSRATGIPDRFSGSGSGTDFTLTISRLEPEDFAVYYCQQYGSSPRTFGQGTKVEIK
B12: HbnC3t1p2_B10 (antibody, V domains shown)
VH: B11 VH with T28I, F99Y, F102Y
VL: B11 VL with Y49S, V51A, T56A, S76N, V104L
B13: FnC1t2p1_G5 (antibody, V domains shown)
VH: QVQLVQSGSELKKPGASVKVSCKASGYTFLRFAMNWLRQAPGQGLEWMGWIDTNTGTPTYAQGFTGRFVFSLDTSVSTAYLQISSLKAEDTAVYYCARSLRGANLVPWGQGTLVTVSS
VL: DIQMTQSPSSLSASVGDRVTITCQASQDVSNYLNWYQQQPGKAPKLLIYDAFNLETGVPSRFSGSGSGTDFTFTISSLQPEDIATYYCQQYDNLPLTFGGGTKVEIK
B14: HbnC3t1p1_F4 (antibody, V domains shown)
VH: QVQLVESGGGVVQPGRSLRLSCAATGFTFRRYGMHWVRQAPGKGLEWVAGILFDGSNKYYVDSVKGRFTISRDSSRNTLYLQLNSLRREDTAVYYCAKGGDYEWELLESWGQGTLVTVSS
VL: DIQMTQSPSTVSASVGDRVTITCRASQSIDNWLAWYQEKPGKAPKVLIYKASSLESGVPSRFSGRGSGTEFTLTISSLQPGDFATYYCQHYHSFPLTFGGGTKVDIK
B15: CnC2t1p1_D6 (antibody, V domains shown)
VH: EVQLVESGGGLVQPGRSLRLSCTASGFTFGDYAMSWFRQAPGKGLEWVGFIRSKAYGGTTEYAASVKGRFTISRDDSKSIAYLQMNSLKTEDTAVYYCTRVRRLWFGSYYYGMDVWGQGTTVTVSS
VL: not shown
B16: CnC2t1p1_E12 (antibody, V domains shown)
VH: B15 VH with A81V
VL: not shown
B17: FnC1t2p1_D4 (antibody, V domains shown)
VH: B13 VH
VL: B13 VL
B18: FnC1t1p2_A5 (antibody, V domains shown)
VH: QVQLVQSGAEVKKPGASVKVSCKASGYTFTSYDINWVRQATGQGLEWMGWMNPNSGNTGYAQKFQGRVTMTRNTSISTAYMELSSLRSEDTAVYYCARATTDCSSTSCWSLDFWSGYYTGGREKIFDYWGQGTLVTVSS
VL: not shown
B19: CnC2t1p1_B4 (antibody, V domains shown)
VH: QVQLVQSGAEVKKPGASVKVSCKASGYTFTSYGISWVRQAPGQGLEWMGWISAYNGNTNYAQKLQGRVTMTTDTSTSTAYMELRSLRSDDTAVYYCARDGELLGWFDPWGQGTLVTVSS
VL: QSALTQPASVSGSPGQSITISCTGTSSDVGSYNLVSWYQQHPGKAPKLMIYEGSKRPSGVSNRFSGSKSGNTASLTISGLQAEDEADYYCCSYAGSSTWVFGGGTKLTVL
B20: CnC2t1p1_E8 (antibody, V domains shown)
VH: QVQLVQSGAEVKNPGASVKVSCKASGYIFTNYYIHWVRQAPGQGLEWVGWIHSLSGGTSYAQKFQGRVTLTRDASIRTAYMELSRLGSDDTALYYCARASVSTITDFDYWGQGTLVAVSS
VL: B19 VL with S27G, M49V, G53A, S54T, S65F, G66A, S96V, S97R, W99V
B21: CnC2t1p1_G6 (antibody, V domains shown)
VH: B20 VH with N13K, S75P, R85G, L93V, S102A
VL: B19 VL with S27G, V29I, H41Y, M49I, G53A, S65F, G66A, S96V, S97R, W99V
B22: CnC2t1p1_B10 (antibody, V domains shown)
VH: QVQLVQSGAEVKKPGSSVKVSCKASGGTFSSYAISWVRQAPGQGLEWMGGIIPIFGTANYAQKFQGRVTITADKSTSTAYMELSSLRSEDTAVYYCARVSGYDSSGYWGDYWGQGTLVTVSS
VL: EIVLTQSPATLSLSPGERATLSCRASQSVSSYLAWYQQKPGQAPRLLIYDASNRATGIPARFSGSGSGTDFTLTISSLEPEDFAVYYCQQRSNWPPALTFGGGTKVEIK
B23: MnC5t2p1_G1 (antibody, V domains shown)
VH: B8 VH with N59D, M74V, H100R, S103G, T104G, I105S
VL: B2 VL with Q39H, Y50C, V52A, D71G, V85A, H90Q
B24: MnC4t2p2_A4 (antibody, V domains shown)
VH: QVQLVQSGSELKKPGASVKISCKASGYIFINYAMNWVRQAPGQGLEWMGWINTNTGNPTYAQDFTGRFVFSLDTSLSTAYLQISSLEAEDTAVYYCAKIGSRNSLGVWGQGTLVTVSA
VL: EIVLTQSPGTLSLSPGERATLSCRASHSVDRSYLAWYQQKPGLAPRLLIYGASSRATGIPDRFSGSGSGTDFTLTISRLEPEDFALYYCQHFGTSSVTFGRGTRLEIK
B25: MnC4t2p1_E6 (antibody, V domains shown)
VH: B6 VH with D59G, H82Q
VL: B6 VL with I5T, I103K

These binders were tested against T1, prefusion stabilized SARS-CoV-2 S ectodomain (SARS-CoV-2, UniProt P0DTC2 14-1208) (assay: ELISA, coated S ectodomain [cont'd]).
T1 construct: also called SARS-CoV-2 spike ectodomain; ectodomain of the spike (S) homotrimer of SARS-CoV-2

Point of comparison: B6, EC50 0.06 mg/L. Against it:
- B1 — 5.5-fold higher, 0.33 mg/L
- B2 — within 1.5-fold, 0.05 mg/L
- B3 — 3-fold lower, 0.02 mg/L
- B4 — within 1.5-fold, 0.05 mg/L
- B5 — within 1.5-fold, 0.07 mg/L

Target: T1, prefusion stabilized SARS-CoV-2 S …
Assay: ELISA, coated S ectodomain [cont'd]
Remark: another data set of the same source

Point of comparison: B11, EC50 0.02 mg/L. Against it:
- B7 — 2-fold higher, 0.04 mg/L
- B8 — 3-fold higher, 0.06 mg/L
- B9 — 2-fold higher, 0.04 mg/L
- B10 — 12-fold higher, 0.25 mg/L
- B12 — 11-fold higher, 0.22 mg/L
- B13 — the same, 0.02 mg/L
- B14 — 2-fold higher, 0.04 mg/L

These binders were tested against T1, prefusion stabilized SARS-CoV-2 S … (assay: ELISA, coated S ectodomain).

Point of comparison: B15, EC50 0.03 mg/L. Against it:
- B16 — the same, 0.03 mg/L
- B17 — 1.5-fold lower, 0.02 mg/L
- B19 — the same, 0.03 mg/L
- B20 — 4.3-fold higher, 0.13 mg/L
- B21 — 10-fold higher, 0.31 mg/L
- B22 — 11-fold higher, 0.32 mg/L

B18: binds.

Target: T1, prefusion stabilized SARS-CoV-2 S …
Assay: ELISA, coated S ectodomain [cont'd]
Remark: another data set of the same source

Point of comparison: B25, EC50 0.03 mg/L. Against it:
- B23 — the same, 0.03 mg/L
- B24 — 1.5-fold lower, 0.02 mg/L
